B1: Phospholipase D alpha 1 (Arabidopsis thaliana (Mouse-ear cress)), Q38882 (parent)
chain: MAQHLLHGTLHATIYEVDALHGGGVRQGFLGKILANVEETIGVGKGETQLYATIDLQKARVGRTRKIKNEPKNPKWYESFHIYCAHLASDIIFTVKDDNPIGATLIGRAYIPVDQVINGEEVDQWVEILDNDRNPIQGGSKIHVKLQYFHVEEDRNWNMGIKSAKFPGVPYTFFSQRQGCKVSLYQDAHIPDNFVPRIPLAGGKNYEPQRCWEDIFDAISNAKHLIYITGWSVYAEIALVRDSRRPKPGGDVTIGELLKKKASEGVRVLLLVWDDRTSVDVLKKDGLMATHDEETENFFRGSDVHCILCPRNPDDGGSIVQSLQISTMFTHHQKIVVVDSEMPSRGGSEMRRIVSFVGGIDLCDGRYDTPFHSLFRTLDTVHHDDFHQPNFTGAAITKGGPREPWHDIHSRLEGPIAWDVMYNFEQRWSKQGGKDILVKLRDLSDIIITPSPVMFQEDHDVWNVQLFRSIDGGAAAGFPESPEAAAEAGLVSGKDNIIDRSIQDAYIHAIRRAKDFIYVENQYFLGSSFAWAADGITPEDINALHLIPKELSLKIVSKIEKGEKFRVYVVVPMWPEGLPESGSVQAILDWQRRTMEMMYKDVIQALRAQGLEEDPRNYLTFFCLGNREVKKDGEYEPAEKPDPDTDYMRAQEARRFMIYVHTKMMIVDDEYIIIGSANINQRSMDGARDSEIAMGGYQPHHLSHRQPARGQIHGFRMSLWYEHLGMLDETFLDPSSLECIEKVNRISDKYWDFYSSESLEHDLPGHLLRYPIGVASEGDITELPGFEFFPDTKARILGTKSDYLPPILTT
partner: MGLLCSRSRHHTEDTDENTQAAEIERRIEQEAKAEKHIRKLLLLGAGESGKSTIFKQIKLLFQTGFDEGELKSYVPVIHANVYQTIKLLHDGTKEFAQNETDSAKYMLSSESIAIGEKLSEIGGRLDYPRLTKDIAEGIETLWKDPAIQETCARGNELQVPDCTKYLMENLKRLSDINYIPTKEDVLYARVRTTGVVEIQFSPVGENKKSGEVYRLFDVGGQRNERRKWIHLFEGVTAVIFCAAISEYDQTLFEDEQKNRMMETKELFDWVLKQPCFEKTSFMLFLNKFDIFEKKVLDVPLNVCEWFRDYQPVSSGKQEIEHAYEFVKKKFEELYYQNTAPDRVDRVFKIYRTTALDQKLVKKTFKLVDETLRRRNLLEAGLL

Variants of: B1
Details: with gpa1_arath GPA1, P18064

Row | effect of a mutation on the interaction | Variant
1 | decreasing interaction | E563A
2 | disrupting interaction | K564A
3 | decreasing interaction | F565A

Variants of: B1
Details: with gpa1_arath GPA1, P18064
Remark: another data set of the same source

Row | effect of a mutation on the interaction | Variant
4 | decreasing interaction | K564A

Reference: IntAct's records for PubMed 14594812
